The text below walks through data of PMC2848763, “The Puf family of RNA-binding proteins in plants: phylogeny, structural modeling, activity and subcellular localization”.

Series [1] concerns the target T1, GST-AtPum2 PUM-HD (Arabidopsis thaliana, UniProt Q9ZW06 614-963).
T1 sequence: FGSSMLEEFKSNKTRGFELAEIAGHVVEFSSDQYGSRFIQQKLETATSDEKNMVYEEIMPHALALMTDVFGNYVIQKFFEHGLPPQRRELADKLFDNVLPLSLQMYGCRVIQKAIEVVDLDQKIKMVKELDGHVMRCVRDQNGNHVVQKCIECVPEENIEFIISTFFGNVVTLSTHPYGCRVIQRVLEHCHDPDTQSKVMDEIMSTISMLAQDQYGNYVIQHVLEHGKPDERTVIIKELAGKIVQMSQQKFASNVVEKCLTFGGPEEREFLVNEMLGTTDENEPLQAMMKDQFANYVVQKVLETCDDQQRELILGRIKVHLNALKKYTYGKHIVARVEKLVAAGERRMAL
Briefly: EMSA; apparent Kd; 200 pM labelled RNA; 10 mM HEPES pH 7.4, 1 mM EDTA, 50 mM KCl, 1 mM DTT, 0.01% BSA, 0.01% Tween 20; room temperature 1 h; 6% native gel run at 4 C. The following applies: protein: recombinant; tags: N-terminal GST (pGEX-6P-1); label: 5' 32P; single strand, 19 nt. A general note: In EMSA bound probe runs differently from free probe, usually more slowly.

Series [2] concerns the target T1, GST-AtPum2 PUM-HD. Description: EMSA; estimated from free RNA; complex unstable, no accurate Kd; 10 mM HEPES pH 7.4, 1 mM EDTA, 50 mM KCl, 1 mM DTT, 0.01% BSA, 0.01% Tween 20; room temperature 1 h; 6% native gel run at 4 C. The following applies: protein: recombinant; tags: N-terminal GST (pGEX-6P-1); label: 5' 32P; single strand, 19 nt.

On to CCAGAAUUGUAUAUAUUCG (ssRNA) [wildtype NRE1 (hunchback NRE1 BoxB)], for which, in the series with GST-AtPum2 PUM-HD [1], the Kd stood at 10.6 nM.

For CCAGAAUUUUAUAUAUUCG (ssRNA) [mutant NRE1 (G to U)], the Kd with GST-AtPum2 PUM-HD [2] is ~354 nM.
